From the nanobody polyreactivity screen of Harvey et al. (2022)

Assay: yeast display, Sf9 membrane polyspecificity reagent, FACS + sequencing; frameworks hold sequencing errors
Summary of the method: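 Nanobodies came from a synthetic yeast display library in Saccharomyces cerevisiae BJ5465, induced with galactose for 36–48 hours and stained for 1 hour at 4 °C with 10% biotinylated, detergent-solubilized Sf9 membrane reagent. Cells were enriched on streptavidin microbeads and then FACS-sorted, with low and high (top ~1%) gates set on anti-HA fluorescence for expression and streptavidin fluorescence for reagent binding. Each polyreactivity label reflects the gate a clone came from. Genes were amplified by colony PCR, sequenced by MiSeq 2 × 250 and filtered by CDR length.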

Row | Sequence | polyreactivity (PSR sort gate)
1 | QVQLVESGGGLVKAGGSLRLSCAASGFTFLNNTMGWYRQAPGKERELVAGITSSGDRTYYADSVKGRFTISRDNAKNTVYLQMNSLKPEDTAVYYCNADSSYPPGYDYWGQGTQVTVSS | low polyreactivity
2 | QVQLVESGGGLVKAGGSLRLSCAASGFTFTRYAMGWYRQAPGKDRELVAAISSGSRSYYADSVKGRFTISRDNANNTVYLQMNSLKPEDTAVYNCASPDYTYYGHYDSWGQGTQVTVSS | high polyreactivity
3 | QVQLVESGGGLVKAGGSLRLSCAASGITFHDYPMGWYRQAPGKERELVAAISSGGSTNYADSVKGRFTISRDNEKNTVYLQLNSLKPEDTAVYYCAAKYTDIVARLSLYYYWGQGTQVTVSS | low polyreactivity
4 | QVQLVESGGGLVKAGGSLRLSCAASGLIFKLNAMGWYRQSPGKERELVAAIRASTGSTYYADSVKGRFTISRDNAKNTVYLQMNSLKPEDTAVYYCAVSLRWYFFLMDYWGQGTQVTVSS | high polyreactivity
5 | QVQLVESGGGLVKAGGSLRLSCAASGNIFTSNAMGWYRQAPGKERELVAAITSGGSTYYADSVKGRFTISRDNAKNTVYLQMNSLKPEDTAVYYCATLPRPHLRPYYYWGQGTQVTVSS | high polyreactivity
6 | QVQLVESGGGLVKAGGSLRLSCAASGRIFKYNAMGWYRQAPGKERELVAVITSGGSTYYADSVKGRFTISRDNAKNTVYLQMNSLKPEDTAVYYWGQGTQVTVSS | low polyreactivity
7 | QVQLVESGGGLVKAGGSLRLSCAASGRNFSQNVMGWYRQAPGKERELVADISRGGSTNYADSVKGRFTISRDNAKNSVFLQMNSLKPEDTAVYYCAARLFWYYYHPYYYWGQGTQVTVSS | high polyreactivity
8 | QVQLVESGGGLVKAGGSLRLSCAASGRTFGNYAMGWYRQAPGKERELVASMNTGGSTSYADSVKGRFTISRDNAKNTVYLQMNSLKPEDTAVYYCARSFFWYRLHDYWGQGTQVTVSS | low polyreactivity
9 | QVQLVESGGGLVKAGGSLRLSCAASGRTFLRNAMGWYRQAPGKERELVATITRGGSTYYADSVKGRFTISRDNAKYTCYLEIISLIPEDTAVYYCAKDITGGFRRPDYGYLGQGTQVTVSS | low polyreactivity
10 | QVQLVESGGGLVKAGGSLRLSCAASGRTFQIYAMGWYRQAPGKESELVAAISRTGASTYYADSVKGRFTISRDKAKNTLFLQLNSLKPEDTAVYYCAANGHCRVYFGGCHWGQGTQVTVSS | high polyreactivity
11 | QVQLVESGGGLVKAGGSLRLSCAASGRTFRFYAMGWYRQAPGKEREFVAAISRSVGSTYYADSVKGRFTISRDNAKNTVYLQMNSLKPEDTAVYYCNADYRSRYVEYDYWGQGTQVTVSS | high polyreactivity
12 | QVQLVESGGGLVKAGGSLRLSCAASGRTLRSYDMGWYRQAPGKEREVVAAITRTGGDTYYADSVKGRFTISRDNAKNTVYLQMNRLKPDDTAVYYCAAQRYRGYDYWGQGTQVTVSS | high polyreactivity
13 | QVQLVESGGGLVKAGGSLRLSCAASGSIFYSYAMGWYRQAPGKERELVAAITDSGDSTYYADSVKGRFTISRDYAKNTVYLQMNSLKPEDTAVYYCAAGFYPYYYWGLGTQVTVSS | low polyreactivity
14 | QVQLVESGGGLVKAGGSLRLSCAASGSTFAKYAMGWYRQAPGKERELDASIRLSGGSTYYADSVKGRFTISRDNAKNNVYLQMNSLKPEDTAVYYCNKQFATFYYGFDYYYWGQGTQVTVSS | low polyreactivity
15 | QVQLVESGGGLVKAGGSLRLSCAASGSTFVGYAMGWYRQAPGKERELVADITWSGTNTYYADSVKGRFTISRDNAKNTVYLQMNSLKPEDTAVYYCAADIARSVRFYYWGQGTQVTVSS | low polyreactivity
16 | QVQLVESGGGLVKAGGSLRLSCAASGSTNDRYAMGLYRQAPGKEREFVAAITKRGGSTYYADSVKGRFTISRDNAKITVYLQMNSLKPEDTAVYYCGARYGRGSAYTEYEYWGQGTQVTVSS | high polyreactivity

Row | Sequence | polyreactivity (PSR sort gate)
17 | QVQLVESGGGLVKAGGSLRLSCADSGRTFYINAMGWYRQAPGKERELVAAISNYGSSTYYADTVKGRFTISRDNAKYTVYLLMISLKPVDSAVYYCAASYGYGGDYDYWGQGTQGTVSS | high polyreactivity
18 | QVQLVESGGGLVKAGGSLRLSCGASGSIIVRYAMGWYRQAPGKERELVASISKRGGSTYYADSVKGRFTISRDNAKNTVYLQMNSLKPEDTEVYYCAAVCYYLVKFDYWGLGTQVTVSS | high polyreactivity
19 | QVQLVESGGGLVKAGGSLRLSSAATGSTFWEYVMGWYRQPPGKERELVAAITTNDDSTYYADSVKGRFTISRDNAKKTVYLQMNSLKPEDTAVYYCNADQITGQFDYWGQGTQVTVSS | low polyreactivity
20 | QVQLVESGGGLVKAGVSLRLSCAASGSIFVGYAMGWYRQAPGKERELVAAIRSGGSTKYADSVKGRFTISRDNAKNTVYLQMNSLKPEDTAVYYCNVEVHPYYWVDNFHRYPVLHNYWGQGTQVTVSS | low polyreactivity
21 | QVQLVESGGGLVKAGVSLRLSSDASGRTFALYAMGWYRQAPGKERELVASIRGGGGTNYADSVKGRFTISRDNAKNTVYLQMNSLKPEDTAVYYCAARGYGYRGYYYWGQGTQVTVSS | high polyreactivity
22 | QVQLVESGGGLVLAGGRLRLSCAASGRNFYGYAMGWYRQAPGKERELVAAISYGGGSTYYADSVKGRFTISRDNAKKTVYLQMNSLKPEDTAVYYCNDFSAYMGQYGYWGQGTQVTVSS | high polyreactivity
23 | QVQLVESGGGLVLAGGRLRLSCAASGRTFFDYTMGWYSQAPGKEREFVARISSRTGRTYYADSVKGRFTISRDNEKNTDDLQMNSLKPDDTAVYYCNAVSQYSAFDYWGQGTQVTVSS | high polyreactivity
24 | QVQLVESGGGLVLAGGRLRLSCADYRSIFAGYAMGWYRQAPGKERELVAAISSSGGRTYYADSVKGRFTISRDNAKNTVYLQMNSLKPEDTAVYYCAVSTYEEEYWGQGTQVTVSS | high polyreactivity
25 | QVQLVESGGGLVLAGGSLLLSCAAAGSTFSQNAMGWYRQAPGKERELVAAITSGGITYYADSVKGRFTISRDNAKNSVYLQMNSLKPEDTAVYYCNADPIVSPYRLWTVTYYYWGQGTQVTVSS | low polyreactivity
26 | QVQLVESGGGLVLAGGSLRLRCAASGSNFYVNAMGWYRQAPWKEMELVAAISRRGGSTYYADSVKGRFTISRDNAKNTVYLQMNSLKPEDTAVYYCNKAMRGQAPSGPEYDYWGQGTQVTVSS | high polyreactivity
27 | QVQLVESGGGLVLAGGSLRLSCAASGFTFLDNAMGWYRQAPGKERELVAAISGIGGSTSYADSVKGRFTISRDNAKNTVYLQMNSLKPEDTAVYYCATRLYKWSFTPKFEMDHWGQGTQVTVSS | low polyreactivity
28 | QVQLVESGGGLVLAGGSLRLSCAASGITFKWYAMGWYRQAPGKERELVAAITSGGGTNYADSVKGRFTISRDNAKNTVYLQMNSLKPEDTAVYYCAARFYQLPWRRYDYWGQGTQVTVSS | high polyreactivity
29 | QVQLVESGGGLVLAGGSLRLSCAASGNTFRYYAMGWYRQAPGKERELVADITIGGSTYYADSVKGRFTISRDNAKNTVYLQMNSLKPEDTAVYYCATDPDWGYYDAPYGYWGQGTQVTVSS | low polyreactivity
30 | QVQLVESGGGLVLAGGSLRLSCAASGRIFTSARGWYRQAPGKERELVAAISSSGGRTYYADSVKGRFTISRDNAKNTVYLQMNSLKPEDTAVYYCNTRPGSVFRAGGDYWGQGTQVTVSS | high polyreactivity
31 | QVQLVESGGGLVLAGGSLRLSCAASGSTFFTNVMGWNRQAPGKERELVASITSGGSTNYADSVKGRFTITRDNAQNTVYLQMNSLKPEDTAVYYCAAVTRTITIYELDSWGQGTQVTVSS | low polyreactivity
32 | QVQLVESGGGLVLAGGSLSLTCAASGRTCWYYTMGWYRHAPGKARELVAAISSGGRTNYADSVKGRFTISRDNATNTVFLQMNSLKPEDTAVYYCATSRYYKYVERDYWGQGTQVTVSS | high polyreactivity
